{
  "source": "patent US20250027068",
  "data": [
    {"biological_target": "pooled human IgG (human IgG1, 2, 3 and 4)", "units": {"Enzyme Activity Endpoint Assay: Fab′2": "ng/µL", "Enzyme Activity Endpoint Assay: Fc": "ng/µL", "Enzyme Activity Endpoint Assay: IgG": "ng/µL", "Enzyme Activity Endpoint Assay: scIgG": "ng/µL"}, "values": [
      {"protein": "PRT-523 (protein) MITSVWTKGVTPPTDFIKGEDVFHAPYKAGQGWYDITKTFNGKDNLLCGAATAGNMLHWWFDQNKEEIEAYLKKHPEKQKIIFNNQELFDLKAVINTKDSQTNSALFNYFKDKAFPNLSARRLGVFPDLVLDMFINGYYLNVYKTQTTDVNRTYQTKDRRGGIFDAVFTRGVQSKLLTERHDLKNKTLKEISDLIKQELTEGKALGLSHTYANVRINHVINLWGADFDSNGNLEAIYVTDSDTNASIGMKKYFVGVNSAGKVAISAKEIKEDNIGAQVLGLFTLSTGQDIWNQTNLEHHHHHH", "Enzyme Activity Endpoint Assay: Fab′2": 17, "Enzyme Activity Endpoint Assay: Fc": 24, "Enzyme Activity Endpoint Assay: IgG": 0, "Enzyme Activity Endpoint Assay: scIgG": 0},
      {"protein": "PRT-500 (protein) MVTSVWTKGVTPPADFTQGEDVFHAPYVANQGWYDITKAFDGGDDLLCGAATAGNMLHWWFDQNKEYIEAYLKKHPEKQKIMFGDQELLDVRKAINTKGSQKNSELFNYFRDKAFPNLSARRLGVMPDLVLDMFINGYYLNVTKTQTTDVNRTYQEKDKRGGIFDAVFTRGDQSKLLTSRHDLKNKGLKEISDLIKQELTEGKALGLSHTYANVRINHVINLWGADFDSDGNLKAIYVTDSDSNASIGMKKYFVGVNSAGKVAISAKEIKEDNIGAQVLGLFTLSTGQDIWNQTNLEHHHHHH", "Enzyme Activity Endpoint Assay: Fab′2": 25, "Enzyme Activity Endpoint Assay: Fc": 30, "Enzyme Activity Endpoint Assay: IgG": 0, "Enzyme Activity Endpoint Assay: scIgG": 0},
      {"protein": "PRT-519 (protein) MVTSVWTKGVTPPTDFIKGEDVFHAPYKAGQGWYDITKTFNGKDNLLCGAATAGNMLHWWFDQNKEYIEAYLKKHPEKQKIIFNNQELFDLKAAINTKGSQKNSELFNYFRDKAFPNLSARRLGVFPDLVLDMFINGYYLNVTKTQTTDVNRTYQEKDKRGGIFDAVFTRGVQSKLLTSRHDLKNKGLKEISDLIKQELTEGKALGLSHTYANVRINHVINLWGADFDSDGNLKAIYVTDSDTNASIGMKKYFVGVNSAGKVAISAKEIKEDNIGAQVLGLFTLSTGQDIWNQTNLEHHHHHH", "Enzyme Activity Endpoint Assay: Fab′2": 0, "Enzyme Activity Endpoint Assay: Fc": 17, "Enzyme Activity Endpoint Assay: IgG": 0, "Enzyme Activity Endpoint Assay: scIgG": 0},
      {"protein": "PRT-614 (protein) MQITSVWTKGVKPLTPEQFRYNNEDVIHAPYLAHQGWYDITKAFDGKDNLLCGAATAGNMLHWWFDQNKTEIEAYLSKHPEKQKIIFNNQELFDLRAAIDTKDSQTNSQLFNYFRDKAFPNLSARQLGVMPDLVLDMFINGYYLNVFKTQSTDVNRPYQDKDKRGGIFDDVFTRGDQTTLLTARHDLKNGGLNDISTIIKQELTEGRALALSHTYANVSISHVINLWGADFNAEGNLEAIYVTDSDANASIGMKKYKVGINAHGHVAISAKKIEGENIGAQVLGLFTLSSGKDIWQKLSLEHHHHHH", "Enzyme Activity Endpoint Assay: Fab′2": 0, "Enzyme Activity Endpoint Assay: Fc": 0, "Enzyme Activity Endpoint Assay: IgG": 0, "Enzyme Activity Endpoint Assay: scIgG": 0},
      {"protein": "PRT-662 (protein) MQITSVWTKGVTPLTPEQFRYNNEDVFHAPYLAHQGWYDITKAFDGKDNLLCGAATAGNMLHWWFDQNKTEIEAYLSKHPEKQKIIFNNQELFDLRAAINTKDSQTNSQLFNYFRDKAFPNLSARQLGVMPDLVLDMFINGYYLNVFKTQSTDVNRPYQDKDKRGGIFDAVFTRGDQTTLLTARHDLKNKGLNDISTLIKQELTEGRALALSHTYANVSISHVINLWGADFNAEGNLEAIYVTDSDANASIGMKKYFVGINASGHVAISAKKIEGENIGAQVLGLFTLSSGKDIWQKLSLEHHHHHH", "Enzyme Activity Endpoint Assay: Fab′2": 8, "Enzyme Activity Endpoint Assay: Fc": 13, "Enzyme Activity Endpoint Assay: IgG": 0, "Enzyme Activity Endpoint Assay: scIgG": 0}
    ]}
  ]
}
